Consider one substance from US20140127127.

In the series the test system is L-pyroglutamyl-L-prolyl-L-arginine-p-nitroaniline hydrochloride.

Chain of recombinant human hepsin extracellular region (Ser46 to Leu417), produced in P. pastoris (chain, as listed by the source): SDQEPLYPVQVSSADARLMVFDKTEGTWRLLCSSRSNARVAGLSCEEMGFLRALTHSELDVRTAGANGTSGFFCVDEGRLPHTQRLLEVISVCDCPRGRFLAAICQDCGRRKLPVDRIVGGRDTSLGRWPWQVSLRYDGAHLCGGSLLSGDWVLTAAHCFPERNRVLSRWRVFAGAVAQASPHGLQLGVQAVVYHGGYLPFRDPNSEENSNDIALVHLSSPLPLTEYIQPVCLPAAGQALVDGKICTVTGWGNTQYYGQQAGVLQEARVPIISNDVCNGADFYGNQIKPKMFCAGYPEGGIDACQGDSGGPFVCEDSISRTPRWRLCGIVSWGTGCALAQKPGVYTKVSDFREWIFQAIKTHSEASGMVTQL

Regarding “recombinant human hepsin extracellular region (Ser46 to Leu417), produced in P. pastoris”, the Km is 0.4 nM hepsin, Km=170 µM and the “enzymatic cleavage of chromogenic substrate” value is recorded as “The purified hepsin was enzymatically active (FIG. 1B), cleaving the chromogenic serine protease substrate pyroGlu-Pro-Arg-pNA”.
